From article PMC12775136, “Mechanistic insights into recruitment and regulation of the RNA helicase UPF1 in replication-dependent histone mRNA decay”

Legend:
[1] = biological target: T1, 3'hExofl (ERI1) (human, UniProt Q8IV48 1-349); test: fluorescence anisotropy; 0.5 mM EDTA, no Mg2+; Kd shown only in figure; Fluorescence anisotropy: 20 mM HEPES pH 7.5, 100 mM NaCl, 0.5 mM EDTA, 100 ug/ml BSA; 30 min at room temperature, read at 25 C; one-site fit with Hill slope, n=3; conditions: protein: recombinant, tags: 6xHis, HRV-3C site (N-terminal), label: 5' 6-FAM, hairpin
T1 sequence: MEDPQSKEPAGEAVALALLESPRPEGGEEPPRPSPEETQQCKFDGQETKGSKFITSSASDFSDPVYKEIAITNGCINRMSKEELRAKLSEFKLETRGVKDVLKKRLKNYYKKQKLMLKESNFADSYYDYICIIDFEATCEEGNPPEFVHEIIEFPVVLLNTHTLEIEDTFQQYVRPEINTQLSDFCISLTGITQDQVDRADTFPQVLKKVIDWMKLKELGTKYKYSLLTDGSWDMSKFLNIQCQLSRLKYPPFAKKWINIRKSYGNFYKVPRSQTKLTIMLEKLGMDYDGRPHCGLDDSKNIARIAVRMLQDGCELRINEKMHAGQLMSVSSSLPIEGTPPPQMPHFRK

[2] = biological target: SLBPfl (human, UniProt Q14493 1-270); test: fluorescence anisotropy; 0.5 mM EDTA; Fluorescence anisotropy: 20 mM HEPES pH 7.5, 100 mM NaCl, 0.5 mM EDTA, 100 ug/ml BSA; 30 min at room temperature, read at 25 C; one-site fit with Hill slope, n=3; conditions: protein: recombinant, tags: 6xHis-TEV (N-terminal), label: 5' 6-FAM
[3] = biological target: T2, UPF1-Hel;SLBP-N (human;human, UniProt Q92900-2;Q14493 295-914;1-198, |); test: analytical SEC; stable UPF1-SLBP complex only with SL26; Fluorescence anisotropy: 20 mM HEPES pH 7.5, 100 mM NaCl, 0.5 mM EDTA, 100 ug/ml BSA; 30 min at room temperature, read at 25 C; one-site fit with Hill slope, n=3; conditions: protein: recombinant;recombinant; tags: 6xHis;6xHis-TEV; copies: 1;1; hairpin, 6 bp stem, 4 nt loop
[4] = biological target: T1, 3'hExofl (ERI1); test: fluorescence anisotropy; 0.5 mM EDTA, no Mg2+; affinity comparable to SL26 and SL24; Kd shown only in figure; Fluorescence anisotropy: 20 mM HEPES pH 7.5, 100 mM NaCl, 0.5 mM EDTA, 100 ug/ml BSA; 30 min at room temperature, read at 25 C; one-site fit with Hill slope, n=3; conditions: protein: recombinant; tags: 6xHis, HRV-3C site (N-terminal); label: 5' 6-FAM; partial hairpin; 3' arm lacks last 2 stem nt
[5] = biological target: T2, UPF1-Hel;SLBP-N; test: preparative SEC; ternary complex reconstituted for crosslinking MS; Fluorescence anisotropy: 20 mM HEPES pH 7.5, 100 mM NaCl, 0.5 mM EDTA, 100 ug/ml BSA; 30 min at room temperature, read at 25 C; one-site fit with Hill slope, n=3; conditions: protein: recombinant;recombinant; tags: 6xHis;6xHis-TEV; copies: 1;1; hairpin with 5' single-stranded U12 extension
[6] = biological target: T3, UPF1-CHh (human, UniProt Q92900-2 115-914); test: cryoEM structure (3.6 A); no ATP; Zn2+; Fluorescence anisotropy: 20 mM HEPES pH 7.5, 100 mM NaCl, 0.5 mM EDTA, 100 ug/ml BSA; 30 min at room temperature, read at 25 C; one-site fit with Hill slope, n=3; conditions: protein: recombinant; tags: 6xHis; hairpin with 5' single-stranded U12 extension
T3 sequence: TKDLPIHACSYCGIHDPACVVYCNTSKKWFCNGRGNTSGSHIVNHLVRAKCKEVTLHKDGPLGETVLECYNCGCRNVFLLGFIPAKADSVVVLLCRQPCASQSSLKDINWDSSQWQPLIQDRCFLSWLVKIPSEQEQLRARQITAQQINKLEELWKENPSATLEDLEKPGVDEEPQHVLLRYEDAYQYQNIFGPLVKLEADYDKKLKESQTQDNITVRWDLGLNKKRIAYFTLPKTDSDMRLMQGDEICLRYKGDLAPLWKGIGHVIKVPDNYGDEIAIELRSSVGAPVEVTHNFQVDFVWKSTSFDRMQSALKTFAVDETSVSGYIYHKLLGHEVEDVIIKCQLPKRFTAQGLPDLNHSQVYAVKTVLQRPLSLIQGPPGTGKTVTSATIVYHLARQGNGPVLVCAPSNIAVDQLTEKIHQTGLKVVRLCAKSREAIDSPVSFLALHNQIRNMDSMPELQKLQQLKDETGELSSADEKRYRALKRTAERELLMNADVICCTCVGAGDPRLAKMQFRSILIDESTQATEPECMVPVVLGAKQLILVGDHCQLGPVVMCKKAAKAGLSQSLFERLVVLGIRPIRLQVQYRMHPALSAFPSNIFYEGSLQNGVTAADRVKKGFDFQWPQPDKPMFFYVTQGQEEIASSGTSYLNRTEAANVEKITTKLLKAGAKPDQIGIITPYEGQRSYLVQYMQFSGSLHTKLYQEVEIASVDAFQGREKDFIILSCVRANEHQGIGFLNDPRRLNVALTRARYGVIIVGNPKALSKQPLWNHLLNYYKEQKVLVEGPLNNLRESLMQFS

**Q.** Does CCAAAGGCUCUUUUCAGAGCCACU (structured_RNA) [6-FAM-SL24] bind ([1]; intact 6 bp stem)?
**A.** binds

**Q.** And the Kd ([2]; hairpin, intact 6 bp stem)?
**A.** ~7 nM

**Q.** Does CCAAAGGCUCUUUUCAGAGCCACCCA (structured_RNA) [SL26 RNA (SEC)] bind [3]?
**A.** binds

**Q.** Does CCAAAGGCUCUUUUCAGAGCCACCCA (structured_RNA) [6-FAM-SL26] bind ([1]; 6 bp stem, 4 nt loop)?
**A.** binds

**Q.** And the Kd ([2]; hairpin, 6 bp stem, 4 nt loop)?
**A.** ~6 nM

**Q.** Which Kd ([2]; partial hairpin, 3' arm lacks last 2 stem nt) does the source give for CCAAAGGCUCUUUUCAGAG (structured_RNA) [6-FAM-SL19] here?
**A.** ~500 nM

**Q.** Does CCAAAGGCUCUUUUCAGAG (structured_RNA) [6-FAM-SL19] bind [4]?
**A.** binds

**Q.** Does UUUUUUUUUUUUCCAAAGGCUCUUUUCAGAGCCACCCA (structured_RNA) [U-SL (12U-26SL)] bind [5]?
**A.** binds

**Q.** Does UUUUUUUUUUUUCCAAAGGCUCUUUUCAGAGCCACCCA (structured_RNA) [U-SL (12U-26SL)] bind [6]?
**A.** binds
